Assay results from PMC9108607, “The intrinsically disordered CARDs‐Helicase linker in RIG‐I is a molecular gate for RNA proofreading”.

Experiments:
[1] = target: T1, Δ190-200 RIG-I (human, UniProt O95786 1-925, del190-200); experiment: EMSA; streptavidin, ±2 mM ATP; oligomerizes with ATP; Buffer A: 50 mM MOPS pH 7.4, 5 mM DTT, 5 mM MgCl2, 0.01% Tween20, 25°C (fluorimetry: 15 nM RNA; ATPase: 15 nM protein, 1 mM ATP); EMSA in Buffer A at 4°C; conditions: protein: recombinant; tags: 6xHis-SUMO removed by Ulp1; label: 3' DY547 and 5' biotin on strand 2; blunt
T1 sequence: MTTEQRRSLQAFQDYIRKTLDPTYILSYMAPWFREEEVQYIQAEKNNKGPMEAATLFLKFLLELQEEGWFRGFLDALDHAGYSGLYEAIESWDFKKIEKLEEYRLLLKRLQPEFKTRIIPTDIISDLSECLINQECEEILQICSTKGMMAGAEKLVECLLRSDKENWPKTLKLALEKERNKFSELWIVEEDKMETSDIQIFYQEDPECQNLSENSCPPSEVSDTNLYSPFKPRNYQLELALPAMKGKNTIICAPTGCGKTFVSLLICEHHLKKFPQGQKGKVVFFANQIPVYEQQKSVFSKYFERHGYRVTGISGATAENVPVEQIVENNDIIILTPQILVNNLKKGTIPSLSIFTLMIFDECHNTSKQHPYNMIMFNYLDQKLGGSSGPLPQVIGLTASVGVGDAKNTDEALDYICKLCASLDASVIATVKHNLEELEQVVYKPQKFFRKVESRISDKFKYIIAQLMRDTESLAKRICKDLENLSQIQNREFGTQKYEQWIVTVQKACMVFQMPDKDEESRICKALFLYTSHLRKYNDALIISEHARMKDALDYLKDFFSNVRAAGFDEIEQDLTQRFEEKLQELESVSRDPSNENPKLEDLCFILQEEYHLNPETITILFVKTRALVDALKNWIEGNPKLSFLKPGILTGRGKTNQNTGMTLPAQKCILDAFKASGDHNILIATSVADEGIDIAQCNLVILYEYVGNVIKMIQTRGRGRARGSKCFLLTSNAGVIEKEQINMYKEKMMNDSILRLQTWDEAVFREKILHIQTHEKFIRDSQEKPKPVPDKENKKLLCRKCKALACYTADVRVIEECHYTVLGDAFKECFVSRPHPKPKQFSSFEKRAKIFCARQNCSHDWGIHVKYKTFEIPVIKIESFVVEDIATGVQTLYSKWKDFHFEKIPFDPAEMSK

[2] = target: T2, WT RIG-I (human, UniProt O95786 1-925); experiment: RNA-dependent ATPase titration (KD,app); 1 mM ATP; Buffer A: 50 mM MOPS pH 7.4, 5 mM DTT, 5 mM MgCl2, 0.01% Tween20, 25°C (fluorimetry: 15 nM RNA; ATPase: 15 nM protein, 1 mM ATP); EMSA in Buffer A at 4°C; conditions: protein: recombinant; tags: 6xHis-SUMO removed by Ulp1; label: 3' DY547 and 5' biotin on strand 2; blunt
T2 sequence: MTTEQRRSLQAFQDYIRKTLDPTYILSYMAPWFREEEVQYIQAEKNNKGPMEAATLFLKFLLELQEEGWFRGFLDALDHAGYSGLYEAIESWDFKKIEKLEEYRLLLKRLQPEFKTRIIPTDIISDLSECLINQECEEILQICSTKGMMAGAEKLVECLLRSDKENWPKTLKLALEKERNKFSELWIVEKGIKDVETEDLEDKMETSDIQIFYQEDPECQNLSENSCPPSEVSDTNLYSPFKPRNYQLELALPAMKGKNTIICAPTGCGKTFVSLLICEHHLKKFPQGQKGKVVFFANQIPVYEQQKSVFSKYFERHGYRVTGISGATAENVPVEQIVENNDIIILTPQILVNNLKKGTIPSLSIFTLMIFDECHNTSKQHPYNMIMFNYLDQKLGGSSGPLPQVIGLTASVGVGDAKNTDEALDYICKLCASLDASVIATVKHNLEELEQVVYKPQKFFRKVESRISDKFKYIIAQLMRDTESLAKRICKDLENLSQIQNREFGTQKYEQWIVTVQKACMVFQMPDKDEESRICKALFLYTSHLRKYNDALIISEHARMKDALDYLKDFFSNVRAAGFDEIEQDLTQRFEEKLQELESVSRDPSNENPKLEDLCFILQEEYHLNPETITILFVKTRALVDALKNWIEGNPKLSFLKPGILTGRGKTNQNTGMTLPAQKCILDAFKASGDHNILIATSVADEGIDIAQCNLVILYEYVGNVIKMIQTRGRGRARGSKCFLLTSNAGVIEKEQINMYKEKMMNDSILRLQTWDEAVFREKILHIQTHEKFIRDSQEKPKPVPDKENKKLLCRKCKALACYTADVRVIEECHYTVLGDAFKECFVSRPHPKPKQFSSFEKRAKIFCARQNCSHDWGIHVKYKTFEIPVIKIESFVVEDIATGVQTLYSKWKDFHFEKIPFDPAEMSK

B1: 5'ppp ds27 (dsRNA)
RNA 1: AUACGUCCUGAUAGUUAGUAUCCAUCG
RNA 2: CGAUGGAUACUAACUAUCAGGACGUAU
modifications: 5'ppp on strand 1
[1]
  binding result: binds
[2]
  apparent KD relative to Hel-CTD: ~5 fold weaker than Hel-CTD
